The values below come from doi:10.1101/2022.08.09.502851, “Dystroglycan N-terminal domain enables LARGE1 to extend matriglycan on α-dystroglycan and prevents muscular dystrophy” (bioRxiv, 2022).

Residue numbers refer to the chain shown, from its start. Names may count otherwise.

The target in this test is T1, laminin-111 (mouse Engelbreth-Holm-Swarm (EHS) laminin) (mouse, UniProt P19137 25-3083; P02469 22-1786; P02468 34-1607).
T1 construct: laminin subunit alpha-1 of laminin-111, mouse EHS laminin; laminin subunit beta-1 of laminin-111, mouse EHS laminin; laminin subunit gamma-1 of laminin-111, mouse EHS laminin; source: bought: ThermoFisher, 23017015 (mouse Engelbreth-Holm-Swarm laminin); copies: + +
Put plainly: ELISA; solid-phase assay: WGA eluates of skeletal muscle diluted 1:50 in TBS coated on polystyrene microplates overnight at 4 °C; Laminin-111 in laminin-binding buffer; bound laminin detected with L9393 and HRP anti-rabbit IgG, absorbance at 490 nm; three replicates for each group. To be noted: one partner purified. For orientation: ELISA stands for enzyme-linked immunosorbent assay.

B1: α-dystroglycan (α-DG), wild type, with full-length matriglycan, from control (WT littermate or C57BL/6J) mouse skeletal muscle (receptor, mouse (endogenous in skeletal muscle), UniProt Q62165 28-651, looked up)
chain: HWPSEPSEAVRDWKNQLEASMHSVLSDFQEAVPTVVGIPDGTAVVGRSFRVSIPTDLIASSGEIIKVSAAGKEALPSWLHWDPHSHILEGLPLDTDKGVHYISVSAARLGANGSHVPQTSSVFSIEVYPEDHNEPQSVRAASSDPGEVVPSACAADEPVTVLTVILDADLTKMTPKQRIDLLNRMQSFSEVELHNMKLVPVVNNRLFDMSAFMAGPGNAKKVVENGALLSWKLGCSLNQNSVPDIRGVETPAREGAMSAQLGYPVVGWHIANKKPTLPKRLRRQIHATPTPVTAIGPPTTAIQEPPSRIVPTPTSPAIAPPTETMAPPVRDPVPGKPTVTIRTRGAIIQTPTLGPIQPTRVSEAGTTVPGQIRPTLTIPGYVEPTAVITPPTTTTKKPRVSTPKPATPSTDSSTTTTRRPTKKPRTPRPVPRVTTKAPITRLETASPPTRIRTTTSGVPRGGEPNQRPELKNHIDRVDAWVGTYFEVKIPSDTFYDNEDTTTDKLKLTLKLREQQLVGEKSWVQFNSNSQLMYGLPDSSHVGKHEYFMHATDKGGLSAVDAFEIHVHKRPQGDKAPARFKARLAGDPAPVVNDIHKKIALVKKLAFAFGDRNCSSITLQNITRG
modifications: matriglycan [-GlcA-β1,3-Xyl-α1,3-]n, full length (α-DG of ~150-250 kDa); extensive O-glycosylation
notes: α-dystroglycan, the α-subunit cut from the DG pre-proprotein (Dag1), mouse; also called α-DG (WT)
Usually Kd stands for the constant that tells how readily two partners part at equilibrium. The low end stands for tighter binding, the high end for weaker binding. With B1, the Kd amounted to 0.966 ± 0.069 nM.

B2: α-dystroglycan with the knock-in mutation T190M, from Dag1 T190M mouse skeletal muscle (receptor, UniProt Q62165 28-651, looked up)
chain: B1 chain with T163M
modifications: matriglycan shorter than wild type (α-DG laminin-binding band at ~100-150 kDa)
notes: α-dystroglycan, the α-subunit cut from the DG pre-proprotein (Dag1), mouse, knock-in T190M (Hara et al., 2011); also called α-DGN mutant (T190M)
B2 came in with a Kd of 1.9 ± 0.199 nM.
